In the nanobody polyreactivity screen of Harvey et al. (2022):

assay: yeast display, Sf9 membrane polyspecificity reagent, FACS + sequencing; frameworks hold sequencing errors
Summary of the method: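 Galactose-induced (36–48 hours) yeast carrying a synthetic nanobody display library were exposed to 10% biotinylated, detergent-solubilized Sf9 membrane reagent at 4 °C for 1 hour. FACS followed streptavidin microbead enrichment, using low and high (top ~1%) gates for expression (anti-HA) and reagent binding (streptavidin). Colony PCR, MiSeq 2 × 250 sequencing and CDR-length filtering followed. Labels for polyreactivity reflect the gate of origin.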

Sequence | polyreactivity (PSR sort gate)
QVQLVESGGGLVQAGGSLRLSCAASGSTFRNYAMGWYRQAPGKDRELVAAISGSGGRTNYADSVKGRFTISRDNAKTTVYLQMNSLKPEDTAVYYCAASGGRNWWAARNYYWGQGTQVTVSS | low polyreactivity
QVQLVESGGGLVQAGGSLRLSCAASGSTFRPNAMGWYRPAPGKDRELVAAISWSGRSTYYADSVKGRFTISRDQAKTTVYLQMNSLTPQDTAVADCAKELYAGRTDTRTRYDYWGQGTQVTVSS | high polyreactivity
QVQLVESGGGLVQAGGSLRLSCAASGSTFRPNAMGWYRQAPGKERELVAAISRSGVSTYYADSVKGRFTISRDNAKNTVYLQMNSLQPEDTAVYYCARRYTGRPVLRESWGQGTQVTVSS | low polyreactivity
QVQLVESGGGLVQAGGSLRLSCAASGSTFRQYAMGWYRQAPGKERELVAAIRGRDGSTYYADSVKGGFTISRDNAKYTVYLQMNSLKPEDSAVYYCNVVARGVSPGYDYWGQGTQVTVSS | high polyreactivity
QVQLVESGGGLVQAGGSLRLSCAASGSTFRRNAMGGYRQAPGKERELVAAITSTDSTYYADSVKGRFTISRDNAKNSVYLQMNSLKPEDTAVYYCAKGYWWGGEMGYWGQGTQVTVSS | low polyreactivity
QVQLVESGGGLVQAGGSLRLSCAASGSTFRRNAMGWYRQAPGKERELVAAITSTDSTYYADSVKGRFTISRDNAKNTVYLQMNSLKPEDTAVYYCAKGYCWGGQMGYWGQGTQVTVSS | low polyreactivity
QVQLVESGGGLVQAGGSLRLSCAASGSTFRRNAMGWYRQAPGKERELVAAITVSGGSTYYADSVKGRFTISRDNAKNTVYLQMNSLKPEDTAVYYCAAEPSQYSWYTTYYYWGQGTQVTVSS | high polyreactivity
QVQLVESGGGLVQAGGSLRLSCAASGSTFRRNAMGWYRQAPGKERELVATISTRGGSTYYADSVKGRLTLSRDNAKNTVYLQMNSLKPEDTAVYYCAADRRSGYSRSKYGRGDYWGQGTQVTVSS | high polyreactivity
QVQLVESGGGLVQAGGSLRLSCAASGSTFRRYAMGSYRQAPGKERELVAAISVSGGRTSYADSVKGRFTISRDNAKNTVYLQMNSLKPEDTAVYYCNADYYKRMDYWGQGTKVTVSS | high polyreactivity
QVQLVESGGGLVQAGGSLRLSCAASGSTFRRYAMGWYRQAPGKEREISTSDGSTYYADSVKGRFTISRDNAKNTVYLQMNSLKPEDTAVYYCAADGYRQLIEDITDDYWGQGTQVTVSS | low polyreactivity
QVQLVESGGGLVQAGGSLRLSCAASGSTFRRYAMGWYRQAPGKERELVAAITSTDVNTYYADSVKGRFTISRDNAKNTVYFQMNSLKPEDTAVYYCAAVYLGYYGVSDMEYWGQGTQVTVSS | high polyreactivity
QVQLVESGGGLVQAGGSLRLSCAASGSTFRRYPMGGYRQAPGTERELVAGISSGGTTYYADSVKGRFTISRDNAKNSVYLQMNSLKPEDTAVYYCAKVLYLRSAQAYYYWGQGTQVTVSS | high polyreactivity
QVQLVESGGGLVQAGGSLRLSCAASGSTFRSNAMGWYRQAPGKERELVAAISRRGGSTYYADSVKGRFTISRDNAKNTVDLQMNSLKPEDTAVYYCAKGYIGFPISSFLYDYWGQGTQVTVSS | high polyreactivity
QVQLVESGGGLVQAGGSLRLSCAASGSTFRSYTMGWYRQAPGKERELVADINGTGGSTYYADSVKGRFTISRDNAKNTVYLQMNSLKPEDTAVYYCAADGYFRTVTSGWALRMGYWGQGTQVTVSS | high polyreactivity
QVQLVESGGGLVQAGGSLRLSCAASGSTFRTYAMGWYRQAPGKEREFVAAIRYNGGSTYYADSVKGRFTISLDNAKNTVYLQMNSLKPEDTAVYYCAAATYYYRVSWLWYYLDDYWGQGTQVTVSS | high polyreactivity
QVQLVESGGGLVQAGGSLRLSCAASGSTFRVNAMGWYRQAPGKEREFVATIRGGGVRTYYADSVKGRFTISRDNAKNTVYLQMNSLKPEDTAVYYCAVAGGTPGAYRRFNYWGQGTQVTVSS | high polyreactivity

Sequence | polyreactivity (PSR sort gate)
QVQLVESGGGLVQAGGSLRLSCAASGSTFRVNAMGWYRQAPGKEREFVATIRGGGVRTYYADSVKGRFTISRDNAKNTVYLQMNSLKPEDTAVYYCNRKFYWRRDYWGQGTQVTVSS | high polyreactivity
QVQLVESGGGLVQAGGSLRLSCAASGSTFRVNVMGWYRQAPGKERELVAAITTSGGSTYYADSVKGRFTISRDNAKNTVYLQMNSLKPEDTAVYYCAAEGGFSPQPYNLYYATPREDYWGQGTQVTVSS | low polyreactivity
QVQLVESGGGLVQAGGSLRLSCAASGSTFRVYAMGWYRPAPGKVRELVAAISGSGTSTYYADSVKGRFTISRDNAKNTVYLQMNSLKPEDTAVYYCATGKNYWRGYEYWGQGTQVTVSS | high polyreactivity
QVQLVESGGGLVQAGGSLRLSCAASGSTFRVYAMGWYRQAPGKERELVAAITKSGGSTYYADSVKGRFTISRDNAKNTVYLQMNSLKPEDTEVYYCAADKSWTRYGFYWGQGTQLTVSS | high polyreactivity
QVQLVESGGGLVQAGGSLRLSCAASGSTFRVYAMGWYRQAPGNERELVAAISLSGGRTYYADSVKGRFTISRDNAKNTVYLQMNSLKPEDTAVYYCARRYRDYGRYGYWGQGTQVTVSS | high polyreactivity
QVQLVESGGGLVQAGGSLRLSCAASGSTFRWNAMGWYRQAPGKERELVAAITRSGGSTYYADSVKGRFTISRDNAKNTVYLQMNSLKPEDTAVYYCAAGYYTARRIRSDYWGQGTQVTVSS | high polyreactivity
QVQLVESGGGLVQAGGSLRLSCAASGSTFRWNTMGWYIQAPGKERELVAAISYSGGITYYADSVKGRFTISRDNAKNTVYLQMNSLKPEDTAVYYCYATRVRGWYVTRYYYWGQGSQVTVSS | high polyreactivity
QVQLVESGGGLVQAGGSLRLSCAASGSTFRWYAMGWYRQAPGKERDLVAAISARGTSTYYADSVKGRFTISRDNAKNTVYLQMNSLKPEDTAVSYCAAPQQQSWTYDGRYGYWGQGTQVTVSS | high polyreactivity
QVQLVESGGGLVQAGGSLRLSCAASGSTFRWYAMGWYRQAPGKERELVAAIRRIGSRTYADSVKGRFTISRDNAKNTVYLQMNSLKPEDTAVYYCATRYKYTGYDYWGQGTQVTVSS | high polyreactivity
QVQLVESGGGLVQAGGSLRLSCAASGSTFRWYAMGWYRQAPGKERELVAAIRYTGGSTYYADSVKGRFTISRDNAKNTVYLQMNSLKPEDTAVYYCNARTFRRYVSYSRTYVGYDYWGQGTQVTVSS | high polyreactivity
QVQLVESGGGLVQAGGSLRLSCAASGSTFRWYAMGWYRQAPGKERELVAAITAGGRTYYADSVKGRFTISRDNAKNTVYLQMTSLKPEDTAVYYCNALGKPTWYATTYDYWGQGTQVTVSS | high polyreactivity
QVQLVESGGGLVQAGGSLRLSCAASGSTFRYIAMGWYRQAPGKERELVAAISRGGSTNYADSVKGRFTISRDNAKNSVYLQMNSLKPEDTAVYYCAASGTRRGTAVWRVKPGDYWGQGTQVTVSS | high polyreactivity
QVQLVESGGGLVQAGGSLRLSCAASGSTFRYKTMGWYRQAPGKERELVAAISSRGTNTYYADSVKGRFTISRDNAKNTVYLQMNSLKPDDPAVYYCDTGYYVRMDWGQGTQVTVSS | high polyreactivity
QVQLVESGGGLVQAGGSLRLSCAASGSTFRYNAMGWYRQAPGKERELVAVISWGGGRTYYADSVKGRFTISRDNAKNTVYLQMNSLKPEDTAVYYCNVYFGRIVARDYGYWGQGTQVTVSS | high polyreactivity
QVQLVESGGGLVQAGGSLRLSCAASGSTFRYNAMGWYRQAPGKEREVVAAISRIGGTTYADSVKGRFTISRDNAKNTVYFQMNSLKPEDTAVYYCARANWGYYGPEYGYWGQGTQVTVSS | high polyreactivity
